Substitutions are numbered along the chain they refer to.
B1: IL6R-BP192/IL6R-L (antibody, human IgG1, kappa, name in EU numbering)
heavy: QVQLQESGPGLVKPSETLSLTCAVSGHSISHDHAWSWVRQPPGEGLEWIGFISYSGITNYNPSLQGRVTISRDNSKNTLYLQMNSLRAEDTAVYYCARSLARTTAMDYWGEGTLVTVSSASTKGPSVFPLAPSSKSTSGGTAALGCLVKDYFPEPVTVSWNSGALTSGVHTFPAVLQSSGLYSLSSVVTVPSSSLGTQTYICNVNHKPSNTKVDKKVEPKSCDKTHTCPPCPAPDLLGGDSVFLFPPKPKDTLMISRTPEVTCVVVDVSDEDGEVKFNWYVDGVEVHNAKTKPREEQDNSTYRVVSVLTVLHQDWLNGKEYKCKVSNKALPKPIEKTISKAKGQPREPQVYTLPPSRDELTKNQVSLTCLVKGFYPSDIAVEWESNGQPENNYKTTPPVLDSDGSFFLYSKLTVDKSRWQQGNVFSCSVMHEALHNHYTQESLSLSP
light: not shown
notes: IgG1; alterations on IL6R-B3, EU numbering
B2: IL6R-2B261/IL6R-L (antibody, human IgG1, kappa, name in EU numbering)
heavy: B1 heavy with D270H, G273P, K332A
light: not shown
notes: as for B1
B3: IL6R-BP084/IL6R-L (antibody, human IgG1, kappa, name in EU numbering)
heavy: B1 heavy with D235E, D270H, G273P, D298Y, V325M
light: not shown
notes: as for B1
B4: IL6R-BP209/IL6R-L (antibody, human IgG1, kappa, name in EU numbering)
heavy: B1 heavy with D235E, G239D, D298Y, K328A, K332R
light: not shown
notes: as for B1
B5: IL6R-BP203/IL6R-L (antibody, human IgG1, kappa, name in EU numbering)
heavy: B1 heavy with D235E, G239D, D270H, D298Y, K332R
light: not shown
notes: as for B1
B6: IL6R-BP191/IL6R-L (antibody, human IgG1, kappa, name in EU numbering)
heavy: B1 heavy with D298Y, K328A
light: not shown
notes: as for B1
B7: IL6R-BP195/IL6R-L (antibody, human IgG1, kappa, name in EU numbering)
heavy: B1 heavy with L236Y, G239D, K328A
light: not shown
notes: as for B1
B8: IL6R-BP201/IL6R-L (antibody, human IgG1, kappa, name in EU numbering)
heavy: B1 heavy with G239D, D270H, D298Y, K332R
light: not shown
notes: as for B1
B9: IL6R-BP228/IL6R-L (antibody, human IgG1, kappa, name in EU numbering)
heavy: B1 heavy with D235E, L236Y, G239D, S269Q, D298Y, K328D, K332R
light: not shown
notes: as for B1
B10: IL6R-BP130/IL6R-L (antibody, human IgG1, kappa, name in EU numbering)
heavy: B1 heavy with D270H, G273P, D298Y, V325M
light: not shown
notes: as for B1
B11: IL6R-BP206/IL6R-L (antibody, human IgG1, kappa, name in EU numbering)
heavy: B1 heavy with D270H, D298Y, K332R
light: not shown
notes: as for B1
B12: IL6R-BP151/IL6R-L (antibody, human IgG1, kappa, name in EU numbering)
heavy: B1 heavy with L236Y, G239D, D270H, G273P, D298Y, K328A, K332R
light: not shown
notes: as for B1
B13: IL6R-BP237/IL6R-L (antibody, human IgG1, kappa, name in EU numbering)
heavy: B1 heavy with L236Y, G239D, S269Q, K328A
light: not shown
notes: as for B1
B14: IL6R-BP239/IL6R-L (antibody, human IgG1, kappa, name in EU numbering)
heavy: B1 heavy with L236Y, G239D, S269Q, K328A, K332R
light: not shown
notes: as for B1
B15: IL6R-2B044/IL6R-L (antibody, human IgG1, kappa)
heavy: B1 heavy with D235E, F243L, D270H, G273P, D298Y, K332A
light: not shown
B16: IL6R-2B045/IL6R-L (antibody, human IgG1, kappa)
heavy: B1 heavy with D235E, F243M, D270H, G273P, D298Y, K332A
light: not shown
B17: IL6R-2B132/IL6R-L (antibody, human IgG1, kappa)
heavy: B1 heavy with D235E, D270H, G273P, D298H, K332A
light: not shown
B18: IL6R-2B145/IL6R-L (antibody, human IgG1, kappa)
heavy: B1 heavy with D235E, D270H, G273P, D298Y, S300A, K332A
light: not shown
B19: IL6R-2B169/IL6R-L (antibody, human IgG1, kappa)
heavy: B1 heavy with D235E, D270H, G273P, D298Y, V325I, K332A
light: not shown
B20: IL6R-2B118/IL6R-L (antibody, human IgG1, kappa)
heavy: B1 heavy with D235E, D270H, G273P, Q297M, D298Y, K332A
light: not shown
B21: IL6R-2B128/IL6R-L (antibody, human IgG1, kappa)
heavy: B1 heavy with D235E, D270H, G273P, K332A
light: not shown
B22: IL6R-2B154/IL6R-L (antibody, human IgG1, kappa)
heavy: B1 heavy with D235E, D270H, G273P, D298Y, S300M, K332A
light: not shown
B23: IL6R-2B137/IL6R-L (antibody, human IgG1, kappa)
heavy: B1 heavy with D235E, D270H, G273P, D298N, K332A
light: not shown
B24: IL6R-2B124/IL6R-L (antibody, human IgG1, kappa)
heavy: B1 heavy with D235E, D270H, G273P, Q297V, D298Y, K332A
light: not shown
B25: IL6R-2B129/IL6R-L (antibody, human IgG1, kappa)
heavy: B1 heavy with D235E, D270H, G273P, D298E, K332A
light: not shown
B26: IL6R-BP365/IL6R-L (antibody, human IgG1, kappa, name in EU numbering)
heavy: B1 heavy with G239D, S269Y, D270E, D298Y, K332A
light: not shown
B27: IL6R-F652/IL6R-L (antibody, human IgG1, kappa)
heavy: B1 heavy with D235E, M254Y, D270H, G273P, D298Y, K332A, N436Y, E441K
light: not shown
notes: human IgG1
B28: IL6R-PD038/IL6R-L (antibody, human IgG1, kappa)
heavy: B1 heavy with D235E, L236R, M254Y, D270H, G273P, D298Y, K332A, N436Y, E441K
light: not shown
notes: human IgG1
B29: IL6R-PD090/IL6R-L (antibody, human IgG1, kappa)
heavy: B1 heavy with D235E, G239R, M254Y, D270H, G273P, D298Y, K332A, N436Y, E441K
light: not shown
notes: human IgG1
B30: IL6R-PD035/IL6R-L (antibody, human IgG1, kappa)
heavy: B1 heavy with D235E, L236N, M254Y, D270H, G273P, D298Y, K332A, N436Y, E441K
light: not shown
notes: human IgG1
B31: IL6R-PD031/IL6R-L (antibody, human IgG1, kappa)
heavy: B1 heavy with D235E, L236H, M254Y, D270H, G273P, D298Y, K332A, N436Y, E441K
light: not shown
notes: human IgG1
B32: IL6R-PD072/IL6R-L (antibody, human IgG1, kappa)
heavy: B1 heavy with D235E, G238Q, M254Y, D270H, G273P, D298Y, K332A, N436Y, E441K
light: not shown
notes: human IgG1
B33: IL6R-PD085/IL6R-L (antibody, human IgG1, kappa)
heavy: B1 heavy with D235E, G239K, M254Y, D270H, G273P, D298Y, K332A, N436Y, E441K
light: not shown
notes: human IgG1
B34: IL6R-PD026/IL6R-L (antibody, human IgG1, kappa)
heavy: B1 heavy with D235E, L236A, M254Y, D270H, G273P, D298Y, K332A, N436Y, E441K
light: not shown
notes: human IgG1
B35: IL6R-PD044/IL6R-L (antibody, human IgG1, kappa)
heavy: B1 heavy with D235E, L237A, M254Y, D270H, G273P, D298Y, K332A, N436Y, E441K
light: not shown
notes: human IgG1
B36: IL6R-PD033/IL6R-L (antibody, human IgG1, kappa)
heavy: B1 heavy with D235E, L236K, M254Y, D270H, G273P, D298Y, K332A, N436Y, E441K
light: not shown
notes: human IgG1

target: T1, FcγRIa extracellular domain with C-terminal His tag (human, UniProt P12314 16-292); test: SPR (Biacore), FcgR as analyte
T1 construct: also called FcgRIa
T1 sequence (P12314 16-292): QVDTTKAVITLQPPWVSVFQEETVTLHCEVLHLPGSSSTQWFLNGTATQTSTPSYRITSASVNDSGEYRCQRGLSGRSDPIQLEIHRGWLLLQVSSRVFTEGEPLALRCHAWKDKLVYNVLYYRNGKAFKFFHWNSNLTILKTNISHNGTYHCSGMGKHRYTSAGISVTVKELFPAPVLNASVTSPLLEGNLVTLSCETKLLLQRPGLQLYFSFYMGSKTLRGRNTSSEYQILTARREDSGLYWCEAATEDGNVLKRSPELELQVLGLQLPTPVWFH

Row | Binder | Kd [nM]
1 | B1 | 6.6
2 | B2 | 9
3 | B3 | 7
4 | B4 | 39
5 | B5 | 180
6 | B6 | 4

target: T2, FcγRIIa R type extracellular domain with C-terminal His tag (human, UniProt P12318 34-217); test: SPR (Biacore), FcgR as analyte
T2 construct: extracellular domain; also called FcgRIIaR
T2 sequence (looked up): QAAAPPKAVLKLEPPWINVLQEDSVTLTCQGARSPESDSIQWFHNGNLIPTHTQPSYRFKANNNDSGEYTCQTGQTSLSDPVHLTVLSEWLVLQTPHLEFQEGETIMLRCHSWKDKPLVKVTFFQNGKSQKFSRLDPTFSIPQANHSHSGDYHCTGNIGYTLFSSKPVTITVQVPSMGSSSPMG

Row | Binder | Kd [nM]
7 | B7 | 910
8 | B1 | 2600
9 | B5 | 990
10 | B8 | 840
11 | B6 | 3000

target: T3, FcγRIIb extracellular domain with C-terminal His tag (human, UniProt P31994 43-217); test: SPR (Biacore), FcgR as analyte
T3 construct: extracellular domain; also called FcgRIIb
T3 sequence (looked up): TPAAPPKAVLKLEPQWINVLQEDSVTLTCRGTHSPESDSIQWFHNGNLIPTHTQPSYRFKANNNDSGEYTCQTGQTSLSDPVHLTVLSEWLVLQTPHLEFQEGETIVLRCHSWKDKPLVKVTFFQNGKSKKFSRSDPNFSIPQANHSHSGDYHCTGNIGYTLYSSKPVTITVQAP

Row | Binder | Kd [nM]
12 | B9 | 40
13 | B7 | 50
14 | B10 | 300
15 | B2 | 1000
16 | B3 | 500
17 | B4 | 51
18 | B8 | 40
19 | B11 | 200
20 | B12 | 40
21 | B13 | 100
22 | B14 | 60

target: T4, FcγRIIa R type extracellular domain, His tag (human, UniProt P12318 34-217); test: SPR, bound amount per captured antibody
T4 construct: extracellular domain; also called FcgRIIaR
T4 sequence (looked up): T2 sequence (looked up)

Row | Binder | Relative FcgRIIaR-binding Activity
23 | B15 | 55.7 % of IL6R-BF648/IL6R-L
24 | B16 | 64.7 % of IL6R-BF648/IL6R-L
25 | B17 | 66.9 % of IL6R-BF648/IL6R-L
26 | B18 | 45.1 % of IL6R-BF648/IL6R-L
27 | B19 | 90.8 % of IL6R-BF648/IL6R-L
28 | B20 | 93.4 % of IL6R-BF648/IL6R-L
29 | B21 | 88.1 % of IL6R-BF648/IL6R-L
30 | B22 | 77.5 % of IL6R-BF648/IL6R-L
31 | B23 | 77.7 % of IL6R-BF648/IL6R-L
32 | B24 | 65.2 % of IL6R-BF648/IL6R-L
33 | B25 | 68.4 % of IL6R-BF648/IL6R-L

target: T5, FcγRIIb extracellular domain, His tag (human, UniProt P31994 43-217); test: SPR, bound amount per captured antibody
T5 construct: extracellular domain; also called FcgRIIb
T5 sequence (looked up): T3 sequence (looked up)

Row | Binder | Relative FcgRIIb-binding Activity
34 | B15 | 65.5 % of IL6R-BF648/IL6R-L
35 | B16 | 81.1 % of IL6R-BF648/IL6R-L
36 | B17 | 89.1 % of IL6R-BF648/IL6R-L
37 | B18 | 55.5 % of IL6R-BF648/IL6R-L
38 | B19 | 103 % of IL6R-BF648/IL6R-L
39 | B20 | 96.3 % of IL6R-BF648/IL6R-L
40 | B21 | 102 % of IL6R-BF648/IL6R-L
41 | B22 | 79.4 % of IL6R-BF648/IL6R-L
42 | B23 | 98.3 % of IL6R-BF648/IL6R-L
43 | B24 | 72.9 % of IL6R-BF648/IL6R-L
44 | B25 | 93.3 % of IL6R-BF648/IL6R-L

target: T6, FcgRIIb (human, UniProt P31994 43-217); test: SPR, amount bound per captured antibody
T6 construct: extracellular domain; also called FcγRIIb
T6 sequence (looked up): T3 sequence (looked up)

Row | Binder | Relative FcgRIIb-binding Activity [IL6R-BP267/IL6R-L=100]
45 | B26 | 16.7

target: T7, FcγRIIa R type extracellular domain with C-terminal His tag (human, UniProt P12318 34-217); test: SPR; amount bound divided by amount of IL6R-F652/IL6R-L bound, x100
T7 construct: extracellular domain; also called FcgRIIaR; not shown: His tag at the C terminus
T7 sequence (looked up): T2 sequence (looked up)

Row | Binder | Relative FcgRIIaR-binding Activity
46 | B27 | 100
47 | B28 | 7.8
48 | B29 | 7.9
49 | B30 | 44.4
50 | B31 | 41.8
51 | B32 | 20.6
52 | B33 | 0.5
53 | B34 | 67.2
54 | B35 | 37.7
55 | B36 | 11.2

target: T8, FcγRIIb extracellular domain with C-terminal His tag (human, UniProt P31994 43-217); test: as above
T8 construct: extracellular domain; also called FcgRIIb; not shown: His tag at the C terminus
T8 sequence (looked up): T3 sequence (looked up)

Row | Binder | Relative FcgRIIb-binding Activity
56 | B27 | 100
57 | B28 | 5.4
58 | B29 | 23.7
59 | B30 | 38.3
60 | B31 | 27.6
61 | B32 | 10.4
62 | B33 | 11.8
63 | B34 | 37.2
64 | B35 | 7.9
65 | B36 | 6.2

Reference: US20220411483A1 (Chugai, published 2022)
